# Measurements from article PMC3990635.
# B1: PAR1-Venus [mouse] / RGS2-Luciferase [not stated] (parent)
# chain 1: MQSAMFLAVQHDCRPMDKSAGSGHKSEEKREKMKRTLLKDWKTRLSYFLQNSSTPGKPKTGKKSKQQAFIKPSPEEAQLWSEAFDELLASKYGLAAFRAFLKSEFCEENIEFWLACEDFKKTKSPQKLSSKARKIYTDFIEKEAPKEINIDFQTKTLIAQNIQEATSGCFTTAQKRVYSLMENNSYPRFLESEFYQDLCKKPQITTEPHAT
# chain 2: SFFLRNPSENTFELVPLGDEEEEEKNESVLLEGRAVYLNISLPPHTPPPPFISEDASGYLTSPWLTLFMPSVYTIVFIVSLPLNVLAIAVFVLRMKVKKPAVVYMLHLAMADVLFVSVLPFKISYYFSGTDWQFGSGMCRFATAAFYGNMYASIMLMTVISIDRFLAVVYPIQSLSWRTLGRANFTCVVIWVMAIMGVVPLLLKEQTTRVPGLNITTCHDVLSENLMQGFYSYYFSAFSAIFFLVPLIVSTVCYTSIIRCLSSSAVANRSKKSRALFLSAAVFCIFIVCFGPTNVLLIVHYLFLSDSPGTEAAYFAYLLCVCVSSVSCCIDPLIYYYASSECQRHLYSILCCKESSDPNSCNSTGQLMPSKMDTCSSHLNNSIYKKLLA
# Variants of: B1
# Assay: BRET assay in live COS7 cells
# Conditions: with RGS2-Luciferase; RGS2-Luc 35 ng; PAR1R205A-Ven 1.5 µg; no Gα11; no TFLLR; parent: 0.028; read off a plot
row,response,Variant
1,0.032,chain 2 R164A

# Same assay, conditions: with RGS2-Luciferase; RGS2-Luc 35 ng; PAR1R205A-Ven 1.5 µg; no Gα11; with TFLLR; parent: 0.048; read off a plot
row,response,Variant
1,0.037,chain 2 R164A

# Same assay, conditions: with RGS2-Luciferase; RGS2-Luc 35 ng; PAR1R205A-Ven 1.5 µg; with 0.5 µg untagged Gα11; no TFLLR; parent: 0.062; read off a plot
row,response,Variant
1,0.047,chain 2 R164A

# Same assay, conditions: with RGS2-Luciferase; RGS2-Luc 35 ng; PAR1R205A-Ven 1.5 µg; with 0.5 µg untagged Gα11; with TFLLR; parent: 0.086; read off a plot
row,response,Variant
1,0.048,chain 2 R164A
